This is an account of results in patent publication US20100081799A1, “Chelating Agent” (priority 2006, published 2010).

For data set [1], the system named is AR42J tumor bearing nude mice. The experiment in a line: in vivo. To be noted: mouse. The procedure:
(§1) Animal experiments. Due to its high sst2-somatostatin receptor expression, the rat pancreatic tumor cell line AR42J was used as a tumor model.^55 To establish tumor growth, cells were detached from the surface of the culture flasks using 1 mM EDTA in PBS, centrifuged and re-suspended in serum-free culture medium (RPMI-1640, Biochrom, Berlin, Germany). Concentration of the cell suspension was 3.7×10^6 cells/100 μL serum. Nude mice (female, 6-8 weeks) were injected 100 μL of the cell suspension subcutaneously into the flank.
(§2) For biodistribution studies, mice were intravenously injected 38 μCi [^68Ga]19 (corresponding to 0.15 μg of peptide) in 100 μL PBS into the tail vein. Non-specific tissue accumulation of the radioligand was determined by coinjection of an excess of cold competitor (20 μg Tyr^3-octreotide/mouse). At different time points after radioligand injection (30 and 60 min p.i.) mice (n=5 per time point; n=3 for blocking study at 60 min p.i.) were sacrificed and dissected. The organs of interest were removed, weighed and counted in a […] (Wallach, Turku, Finland). Data are expressed as percent injected dose per gram tissue (% iD/g).

A further data set in a line: in vivo. The conditions noted are these: female, nude, mouse, iv, 38 uCi, total radioactivity. Further details: species or system mice. As to the method: as §1, §2
Setting [2] is: blood concentration of the radioligand.

As usually defined, the tissue uptake is the share of the injected amount in each gram of the tissue. Take `CC(=NOCC(=O)N[C@H](Cc1ccccc1)C(=O)N[C@H]1CSSC[C@@H](C(=O)N[C@H](C(=O)O)[C@@H](C)O)NC(=O)[C@H]([C@@H](C)O)NC(=O)[C@H](CCCCN)NC(=O)[C@@H](Cc2c[nH]c3ccccc23)NC(=O)[C@H](Cc2ccc(O)cc2)NC1=O)c1ccc(C(C(=O)O)N2CCN(CC(=O)O)CCN(CC(=O)O)CCN(CC(=O)O)CC2)cc1` (stereo partly shown) [[^68Ga]19, metal not drawn]: the “tumor/organ ratios (change)” value in data set [1] was “increasing tumor/organ ratios”. Besides, the tissue uptake at 0.5 h in “in vivo” (setting [2]) worked out at 2.37 ± 0.35 %ID/g; in the data set “in vivo” (kidney accumulation), 20 ± 2.4 %ID/g; in the data set “in vivo” (tumor accumulation), 7.73 ± 1.52 %ID/g. Further, the results for the tissue uptake at 1 h in the data set “in vivo” (setting [2]), in the data set “in vivo” (kidney accumulation) and in the data set “in vivo” (tumor accumulation) were 1.71 ± 0.17 %ID/g, 11.9 ± 1.9 %ID/g and 7.46 ± 1.3 %ID/g, respectively.
